Laboratory results taken from patent publication US20210017269A1 (GlaxoSmithKline, published 2021).
Blank lines part the entries; values can stand above or below the binder they belong to.

Experiments:
[1] = target: T1, human neonatal Fc receptor (FcRn) (human, UniProt P55899 24-297; P61769 21-119, limits assumed); test: SPR Biacore T200, 37 °C, pH 6.0, antibody captured on immobilised IL-5, FcRn as analyte
T1 construct: Recombinant human FcRn; also called human FcRn; recombinant human neonatal receptor
Protocol: (§1) Table 17 legend/description: Comparison of binding affinity of 28Y042-7F11-1 and mepolizumab for human FcRn at pH 6.0 and pH 7.4.
(§2) The binding affinity of 28Y042-7F11-1 and mepolizumab to human FcRn at pH 6.0 and pH 7.4 was assessed using a BIACORE T200 instrument at 37° C. Human recombinant IL-5 was diluted in acetate buffer pH 5.0 and immobilised to a level of 535 RU by amine coupling on to a CMS chip (GE, BR100530). 28Y042-7F11-1 or mepolizumab were captured by flowing (5 μl/min) a 100 nM solution of either mAb in HBS-EP (Teknova, H8022) buffer for 24 seconds over the chip surface. Following capture of the antibody via the immobilised IL-5, cycles of varying concentrations (0.5 μM to 32 μM) of human FcRn were flowed over the chip surface at 5 μ1/min for 120 seconds contact time followed by 80 seconds dissociation for each cycle. At the completion of each cycle, the chip surface was regenerated using 10 mM Glycine pH 1.5 for 5 seconds at 50 μ1/min followed by 10mM NaOH for 5 seconds at 50 μl/min. FcRn cycles were performed for each concentration at pH 6.0 (HBS-EP+, Teknova, Cat: H8022, pH 6.0) and pH 7.4 (HBS-EP). A molecular weight of 42929 Da for human FcRn was used in the calculations.

human IL-5 (recombinant) [2] = target: T2, human IL-5 (recombinant) (human, UniProt P05113 20-134); test: cell-based or functional assay
human IL-5 (recombinant) [3] = target: T2, human IL-5 (recombinant); test: SPR Biacore 4000, 25 °C, antibody captured on protein A, human IL-5 as analyte
[4] = target: T1, human neonatal Fc receptor (FcRn); test: ProteOn SPR, human FcRn, pH 7.4
[5] = target: T1, human neonatal Fc receptor (FcRn); test: SPR Biacore T200, 37 °C, pH 6.0
Protocol: as §1, §2

[6] = target: T1, human neonatal Fc receptor (FcRn); test: ProteOn SPR, human FcRn, pH 6.0
human IL-5 (recombinant) [7] = target: T2, human IL-5 (recombinant); test: SPR Biacore T200, 37 °C
cynomolgus IL-5 = target: T3, cynomolgus IL-5 (cynomolgus); test: SPR Biacore T200, 37 °C
T3 construct: also called cyno IL-5

[8] = target: T1, human neonatal Fc receptor (FcRn); test: SPR Biacore T200, 37 °C, pH 7.4, antibody captured on immobilised IL-5, FcRn as analyte
Protocol: as §1, §2

[9] = target: T1, human neonatal Fc receptor (FcRn); test: ProteOn SPR, human FcRn, pH 6.0; remark: listed apart in the source
human IL-5 (recombinant) [10] = target: T2, human IL-5 (recombinant); test: KinExA solution phase affinity, 25 °C
Protocol: Kinetic analyses were performed to compare 28Y042-7F11-1, mepolizumab, and GSK3559090A (a comparator IgG1 anti-IL-5 mAb molecule based). Due to the high affinity of 28Y042-7F11-1, it was not possible to accurately determine the dissociation rate by Biacore 4000 at 25° C.; therefore KINEXA analysis was used to calculate an accurate affinity for 28Y042-7F11-1 binding to human IL-5 at 25° C.
Solution phase affinity measurements were made using Sapidyne's KINEXA 3200 instrument. The method relied on the detection of free antibody at equilibrium in a titrated series of antigen concentrations. For detection, a bead matrix was created using NHS-activated SEPHEROSE beads (GE Healthcare, 17-0906-01) coated with human IL-5. For affinity determination, a fixed concentration of antibody was incubated with a dilution series of human IL-5 concentrations and binding was allowed to reach equilibrium before the samples were run on the KINEXA 3200 instrument. Each solution was passed over an aliquot of the antigen beads where free antibody bound to the antigen coated beads and was detected using an anti-human IgG antibody (DYLIGHT 649-AFFINIPURE F(ab′)2 fragment goat anti-human IgG; Jackoson Immunoresearch, 109-496-170), with fresh antigen beads used to measure each sample.

[11] = target: T4, human complement component C1q (human, UniProt P02745 23-245; P02746 28-253; P02747 29-245); test: ProteOn XPR36 SPR, antibody immobilised, C1q as analyte, equilibrium model
T4 construct: C1q from Sigma (C1740); also called human recombinant soluble complement C1q
Protocol: Binding of 28Y042-7F11-1 to human recombinant soluble complement C1q was assessed using the PROTEOn XPR36 (BioRad™) biosensor instrument. A control antibody containing the YTE change to its Fc region was included as a control.
The antibodies to be tested were immobilised on a GLC chip (Bio-Rad, 176-5011) by primary amine coupling (GE Healthcare, BR-1000-50). Recombinant C1q (Sigma, C1740) was passed over the immobilised antibodies at 512 nM, 128 nM, 32 nM, 8 nM, 2 nM and 0 nM (i.e., buffer alone) and a blank activated and deactivated flow cell was used to double reference binding curves. The running buffer for binding analysis was HBS-EP (pH7.4, Teknova, H8022) with 10 mM CaCl₂. Data were fitted to the equilibrium model, inherent to the PROTEON XPR36 (BioRad™) analysis software using a global R-max value.

T4 sequence (P02745 23-245 limits assumed, chain 1 of 3): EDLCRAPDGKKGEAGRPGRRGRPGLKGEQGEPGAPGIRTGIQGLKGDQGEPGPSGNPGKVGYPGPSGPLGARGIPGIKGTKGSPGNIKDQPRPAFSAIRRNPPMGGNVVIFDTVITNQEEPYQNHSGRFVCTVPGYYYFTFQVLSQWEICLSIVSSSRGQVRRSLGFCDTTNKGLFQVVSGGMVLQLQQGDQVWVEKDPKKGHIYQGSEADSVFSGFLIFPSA
T4 sequence (P02746 28-253 limits assumed, chain 2 of 3): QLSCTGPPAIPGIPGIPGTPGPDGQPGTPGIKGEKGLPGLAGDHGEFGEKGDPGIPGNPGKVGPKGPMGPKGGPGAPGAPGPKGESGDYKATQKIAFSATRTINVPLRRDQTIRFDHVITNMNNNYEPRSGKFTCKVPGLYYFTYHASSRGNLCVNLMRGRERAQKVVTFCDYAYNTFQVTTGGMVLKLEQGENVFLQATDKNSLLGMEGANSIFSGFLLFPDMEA
T4 sequence (P02747 29-245 limits assumed, chain 3 of 3): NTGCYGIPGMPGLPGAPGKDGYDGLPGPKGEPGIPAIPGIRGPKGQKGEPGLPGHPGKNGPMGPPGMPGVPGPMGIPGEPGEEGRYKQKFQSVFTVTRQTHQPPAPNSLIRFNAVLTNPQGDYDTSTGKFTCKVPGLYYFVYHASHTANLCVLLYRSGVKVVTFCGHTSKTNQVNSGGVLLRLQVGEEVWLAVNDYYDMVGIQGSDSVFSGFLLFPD

Kd [1]: 2080 nM
IC50 of inhibition of human IL-5 induced TF-1 cell proliferation (human IL-5 (recombinant) [2]): 0.105 nM
Kd (human IL-5 (recombinant) [3]): 0.123 nM
B1: mepolizumab (antibody)
chain 1: not shown
chain 2: not shown

Kd [4]: 2650 nM
fold increase in affinity compared to mepolizumab [5]: ~13 fold
Kd [6]: 130 nM
Kd (human IL-5 (recombinant) [7]): 0.0391 nM
Kd (cynomolgus IL-5): 0.0239 nM
Kd [8]: 16200 nM
Kd [1]: 157 nM
fold increase in affinity compared to the human IgG1 wild type control [9]: ~3 fold
Kd (human IL-5 (recombinant) [10]): 0.0105 nM
IC50 in the TF-1 cell assay after thermal stress (1 week at 40 °C in acetate or phosphate buffer) (human IL-5 (recombinant) [2]): 0.004 to 0.005 nM
IC50 of inhibition of human IL-5 induced TF-1 cell proliferation (human IL-5 (recombinant) [2]): 0.004 nM
fold improvement in TF-1 cell assay potency compared to mepolizumab (human IL-5 (recombinant) [2]): ~30 fold
Kd [11]: 750 nM
B2: 28Y042-7F11-1 (antibody, human IgG1, kappa)
heavy: QVTLRESGPALVKPTQTLTLTCTVSGFSLTGSSVHWVRQPPGKGLEWLGVIWASGGTDYNSALMSRLSISKDTSRNQVVLTMTNMDPVDTATYYCARDPPSGLLRLDYWGRGTLVTVSSASTKGPSVFPLAPSSKSTSGGTAALGCLVKDYFPEPVTVSWNSGALTSGVHTFPAVLQSSGLYSLSSVVTVPSSSLGTQTYICNVNHKPSNTKVDKRVEPKSCDKTHTCPPCPAPELLGGPSVFLFPPKPKDTLYITREPEVTCVVVDVSHEDPEVKFNWYVDGVEVHNAKTKPREEQYNSTYRVVSVLTVLHQDWLNGKEYKCKVSNKALPAPIEKTISKAKGQPREPQVYTLPPSREEMTKNQVSLTCLVKGFYPSDIAVEWESNGQPENNYKTTPPVLDSDGSFFLYSKLTVDKSRWQQGNVFSCSVMHEALHNHYTQKSLSLSPGK
light: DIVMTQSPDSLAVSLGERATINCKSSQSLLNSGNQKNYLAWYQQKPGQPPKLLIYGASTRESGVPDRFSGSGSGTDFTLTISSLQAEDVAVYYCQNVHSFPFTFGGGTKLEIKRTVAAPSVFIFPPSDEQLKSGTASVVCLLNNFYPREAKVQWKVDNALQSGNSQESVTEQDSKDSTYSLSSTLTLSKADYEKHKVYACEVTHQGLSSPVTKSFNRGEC
notes: Recombinant humanized monoclonal antibody, IgG1 kappa, two heavy and two light chains; also called GSK3511294
